# Patent US20160355588A1 (Zymeworks, published 2016)
# Where two headings read alike, the source gives them in different places.
# T1: CD19 on Raji B cells (human, UniProt P15391 20-556)
# T1 sequence (looked up): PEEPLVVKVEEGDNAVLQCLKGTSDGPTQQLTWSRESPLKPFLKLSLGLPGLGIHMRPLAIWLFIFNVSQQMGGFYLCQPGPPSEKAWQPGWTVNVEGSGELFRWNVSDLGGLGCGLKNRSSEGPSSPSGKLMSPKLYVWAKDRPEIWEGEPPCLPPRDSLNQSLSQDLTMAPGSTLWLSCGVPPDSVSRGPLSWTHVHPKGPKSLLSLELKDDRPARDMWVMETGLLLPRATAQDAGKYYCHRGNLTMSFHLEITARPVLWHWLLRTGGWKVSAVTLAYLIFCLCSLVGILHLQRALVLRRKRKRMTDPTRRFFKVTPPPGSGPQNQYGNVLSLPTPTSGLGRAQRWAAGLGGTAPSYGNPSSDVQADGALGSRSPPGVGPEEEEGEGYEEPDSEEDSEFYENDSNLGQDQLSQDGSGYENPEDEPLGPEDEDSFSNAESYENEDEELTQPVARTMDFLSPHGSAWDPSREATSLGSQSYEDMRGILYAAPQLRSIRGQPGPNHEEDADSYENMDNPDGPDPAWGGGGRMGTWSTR
# T2: CD20 on Raji B cells (human, UniProt P11836 1-297)
# T2 sequence (looked up): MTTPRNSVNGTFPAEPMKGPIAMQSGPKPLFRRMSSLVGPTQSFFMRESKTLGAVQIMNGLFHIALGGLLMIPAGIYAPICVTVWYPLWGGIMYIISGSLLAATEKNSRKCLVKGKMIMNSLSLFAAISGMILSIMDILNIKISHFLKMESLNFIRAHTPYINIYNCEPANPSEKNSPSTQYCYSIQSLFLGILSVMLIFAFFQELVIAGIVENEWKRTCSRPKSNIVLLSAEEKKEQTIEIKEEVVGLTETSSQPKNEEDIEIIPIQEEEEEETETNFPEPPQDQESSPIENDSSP
# B1: v5852 (bispecific antibody, human IgG1, kappa, L234A L235A)
# heavy: QVQLVQSGGGVVQPGRSLRLSCKASGYTFTRYTMHWVRQAPGKGLEWIGYINPSRGYTNYNQKVKDRFTISRDNSKNTAFLQMDSLRPEDTGVYFCARYYDDHYCLDYWGQGTPVTVSSASTKGPSVFPLAPSSKSTSGGTAALGCLVKDYFPEPVTVSWNSGALTSGVHTFPAVLQSSGLYSLSSVVTVPSSSLGTQTYICNVNHKPSNTKVDKKVEPKSCDKTHTCPPCPAPELLGGPSVFLFPPKPKDTLMISRTPEVTCVVVDVSHEDPEVKFNWYVDGVEVHNAKTKPREEQYNSTYRVVSVLTVLHQDWLNGKEYKCKVSNKALPAPIEKTISKAKGQPREPQVYVYPPSRDELTKNQVSLTCLVKGFYPSDIAVEWESNGQPENNYKTTPPVLDSDGSFALVSKLTVDKSRWQQGNVFSCSVMHEALHNHYTQKSLSLSPGK
# chain: EVQLVESGGGLVKPGGSLKLSCAASGYTFTSYVMHWVRQAPGKGLEWIGYINPYNDGTKYNEKFQGRVTISSDKSISTAYMELSSLRSEDTAMYYCARGTYYYGTRVFDYWGQGTLVTVSSGGGGSGGGGSGGGGSDIVMTQSPATLSLSPGERATLSCRSSKSLQNVNGNTYLYWFQQKPGQSPQLLIYRMSNLNSGVPDRFSGSGSGTEFTLTISSLEPEDFAVYYCMQHLEYPITFGAGTKLEIKAAEPKSSDKTHTCPPCPAPEAAGGPSVFLFPPKPKDTLMISRTPEVTCVVVSVSHEDPEVKFNWYVDGVEVHNAKTKPREEQYNSTYRVVSVLTVLHQDWLNGKEYKCKVSNKALPAPIEKTISKAKGQPREPQVYVLPPSRDELTKNQVSLLCLVKGFYPSDIAVEWESNGQPENNYLTWPPVLDSDGSFFLYSKLTVDKSRWQQGNVFSCSVMHEALHNHYTQKSLSLSPGK
# light: DIQMTQSPSSLSASVGDRVTITCSASSSVSYMNWYQQTPGKAPKRWIYDTSKLASGVPSRFSGSGSGTDYTFTISSLQPEDIATYYCQQWSSNPFTFGQGTKLQITRTVAAPSVFIFPPSDEQLKSGTASVVCLLNNFYPREAKVQWKVDNALQSGNSQESVTEQDSKDSTYSLSSTLTLSKADYEKHKVYACEVTHQGLSSPVTKSFNRGEC
# B2: v6325 (bispecific antibody, human IgG1, kappa)
# heavy: B1 heavy
# chain: not shown
# light: B1 light
# B3: v5851 (bispecific antibody)
# chain: not shown
# heavy: not shown
# light: DIVMTQSPATLSLSPGERATLSCRSSKSLQNVNGNTYLYWFQQKPGQSPQLLIYRMSNLNSGVPDRFSGSGSGTEFTLTISSLEPEDFAVYYCMQHLEYPITFGAGTKLEIKRTVAAPSVFIFPPSDEQLKSGTASVVCLLNNFYPREAKVQWKVDNALQSGNSQESVTEQDSKDSTYSLSSTLTLSKADYEKHKVYACEVTHQGLSSPVTKSFNRGEC
# B4: v1821 (bispecific antibody, human IgG1, kappa)
# heavy 1: QVQLVQSGGGVVQPGRSLRLSCKASGYTFTSYTMHWVRQAPGKGLEWIGYINPSSGYTKYNQKFKDRFTISADKSKSTAFLQMDSLRPEDTGVYFCARWQDYDVYFDYWGQGTPVTVSSASTKGPSVFPLAPSSKSTSGGTAALGCLVKDYFPEPVTVSWNSGALTSGVHTFPAVLQSSGLYSLSSVVTVPSSSLGTQTYICNVNHKPSNTKVDKKVEPKSCDKTHTCPPCPAPELLGGPSVFLFPPKPKDTLMISRTPEVTCVVVDVSHEDPEVKFNWYVDGVEVHNAKTKPREEQYNSTYRVVSVLTVLHQDWLNGKEYKCKVSNKALPAPIEKTISKAKGQPREPQVYVYPPSRDELTKNQVSLTCLVKGFYPSDIAVEWESNGQPENNYKTTPPVLDSDGSFALVSKLTVDKSRWQQGNVFSCSVMHEALHNHYTQKSLSLSPGK
# heavy 2: not shown
# light: QIVLSQSPAILSASPGEKVTMTCRASSSVSYIHWFQQKPGSSPKPWIYATSNLASGVPVRFSGSGSGTSYSLTISRVEAEDAATYYCQQWTSNPPTFGGGTKLEIKRTVAAPSVFIFPPSDEQLKSGTASVVCLLNNFYPREAKVQWKVDNALQSGNSQESVTEQDSKDSTYSLSSTLTLSKADYEKHKVYACEVTHQGLSSPVTKSFNRGEC
# What was measured:
# Experiment in all cases: cell-based or functional assay
# CD19 on Raji B cells [1] = target: T1, CD19 on Raji B cells
# CD20 on Raji B cells [2] = target: T2, CD20 on Raji B cells
# CD19 on Raji B cells [3] = target: T1, CD19 on Raji B cells; remark: listed apart in the source
# CD20 on Raji B cells [4] = target: T2, CD20 on Raji B cells; remark: listed apart in the source
binder,measurement,setting,value
B1,% Bridging Jurkat/Raji (whole cell FACS T:B bridging; CD3 on Jurkat bridged to the B cell antigen on Raji),CD19 on Raji B cells [1],30.4%
B2,% Bridging Jurkat/Raji (whole cell FACS T:B bridging; CD3 on Jurkat bridged to the B cell antigen on Raji),CD20 on Raji B cells [2],15.7%
B3,% Bridging Jurkat/Raji (whole cell FACS T:B bridging; CD3 on Jurkat bridged to the B cell antigen on Raji),CD19 on Raji B cells [3],23.2%
B4,% Bridging Jurkat/Raji (whole cell FACS T:B bridging; CD3 on Jurkat bridged to the B cell antigen on Raji),CD20 on Raji B cells [4],7.3%
